Results published in article PMC7402034.

Target: SARS-CoV-2 S protein trimer (with mutations R683A and R685A, His-tag) (SARS-CoV-2) (UniProt P0DTC2)
Assay: ELISA

Question: With “Human DC-SIGNR (Fc-tag) (from UniProt Q9H2X3) (Fc fusion)” as the substance, how does the Kd read?
Answer: 986 pM

Question: For “Human MGL (Fc-tag) (from UniProt Q8IUN9) (Fc fusion)”, which Kd is on record?
Answer: 312 pM

Question: For “Human DC-SIGN (Fc-tag) (from UniProt Q9NNX6) (Fc fusion)”, which Kd is on record?
Answer: 192 pM
